{"source": "IntAct's records for PubMed 25914052", "parents": {"B1": {"name": "General negative regulator of transcription subunit 4 (Saccharomyces cerevisiae), P34909 (parent)", "chain": "MMNPHVQENLQAIHNALSNFDTSFLSEDEEDYCPLCIEPMDITDKNFFPCPCGYQICQFCYNNIRQNPELNGRCPACRRKYDDENVRYVTLSPEELKMERAKLARKEKERKHREKERKENEYTNRKHLSGTRVIQKNLVYVVGINPPVPYEEVAPTLKSEKYFGQYGKINKIVVNRKTPHSNNTTSEHYHHHSPGYGVYITFGSKDDAARCIAQVDGTYMDGRLIKAAYGTTKYCSSYLRGLPCPNPNCMFLHEPGEEADSFNKRELHNKQQAQQQSGGTAFTRSGIHNNISTSTAGSNTNLLSENFTGTPSPAAMRAQLHHDSHTNAGTPVLTPAPVPAGSNPWGVTQSATPVTSINLSKNSSSINLPTLNDSLGHHTTPTTENTITSTTTTTNTNATSHSHGSKKKQSLAAEEYKDPYDALGNAVDFLDARLHSLSNYQKRPISIKSNIIDEETYKKYPSLFSWDKIEASKKSDNTLANKLVEILAIKPIDYTASVVQFLQSVNVGVNDNITITDNTKTPTQPIRLQTVSQQIQPPLNVSTPPPGIFGPQHKVPIQQQQMGDTSSRNSSDLLNQLINGRKIIAGN"}}}
{"variants_of": "B1", "conditions": "with not1_yeast CDC39, P25655"}
{"variant": "L463E;F464E", "effect of a mutation on the interaction": "disrupting interaction"}
{"variant": "F464E;W466E", "effect of a mutation on the interaction": "disrupting interaction"}
